Data reported in the nanobody polyreactivity screen of Harvey et al. (2022).

Assay: yeast display, Sf9 membrane polyspecificity reagent, FACS + sequencing; frameworks hold sequencing errors
How it was run: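 After 36–48 hours of galactose induction, yeast (Saccharomyces cerevisiae BJ5465) displaying a synthetic nanobody library were stained at 4 °C for 1 hour with 10% biotinylated, detergent-solubilized Sf9 membrane reagent. Streptavidin microbeads enriched the stained cells before FACS sorting into low and high (top ~1%) gates on anti-HA and streptavidin fluorescence. Each clone's polyreactivity label reflects its gate of origin.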

For “QVQLVESGGGLVQAGGSLRLSCAASGRTFYIYAMGWYRQAPAKERELVAAITWSRGSSTYYADSVKGRFTISRDNAKNTVYLQMNSLKPEDTAVYYCAAETHYYWYEQYDYCGQGTQVTVSS”, the “polyreactivity (PSR sort gate)” value was “high polyreactivity”.

With “QVQLVESGGGLVQAGGSLPLSCAASGRIFKDNAMGWYRQAPGNEREMVAAISSGASTSYADSVKGRFTISRDYAKNTVYLQRNSLKPEDTAVYYCNGGGDLYYPGWLFDYWGQGTQVTVSS” the “polyreactivity (PSR sort gate)” value was “low polyreactivity”.

In the case of “QVQLVESGGGLVQAGGSLRLSCAASGFIFGYYAMGWYRQAPGKERELVAAISFSGDRTYYADSVKGRFTISRDNAKNTVYLQMNSLKPEDTAVYYCNAKRWGDYTQYRYNYWGQGTQVTVSS”, the “polyreactivity (PSR sort gate)” value was “high polyreactivity”.

With “QVQLVESGGGLVQAGGSLRLSCAASGYIFVFNTMGWYRQAPGKERELVASISWDAGTTYYADSVKGRFTISRDNAKNTVYLQMNSLKPEDTAVDYCNAGRIRSGYLDYWGQGTQVTVSS” the “polyreactivity (PSR sort gate)” value was “low polyreactivity”.

In the case of “QVQLVESGGGLVQAGGSLRLSCAASGLTFGGNAMGWYRQAPGKERELVAAISWSDDTTDYADSVKGRFTISRDNAKNTVYLQMNSLKPEDTAVYYCADRLPFEHVDYWGQGTQVTVSS”, the “polyreactivity (PSR sort gate)” value was “low polyreactivity”.

With “QVQLVESGGGLVQAGGSLRLSCAASGFTFHNYAMGWYRQAPGKERELVAAITWDGGSTYYADSVKGRFTISRDNEKNTVDLQLNRLKPEDTAVYYCALDQYYYYYADYNFDYWGQGTQVTVSS” the “polyreactivity (PSR sort gate)” value was “high polyreactivity”.

With “QVQLEESGGGLVQAGGSLRLSCAASGSTFDVYAMGWYRQAPGKERELVAAIRSSGGSTFYADSVKGRFTISRDNAKNIVYLQMNSLKPEDTAVYYCAARSFVVSGYNKYYEYGYWGQGTQVTVSS” the “polyreactivity (PSR sort gate)” value was “low polyreactivity”.

For “QVQLQESGGGLVQEGGSLRLSCAESGNISPQADMGWYRQAPGKERELVASIGTGGTTNYADSVTGRFTISRDNAKNTVYLQMNSLKPDDTAFYYCAAVRYEYNPYDYWGQGTQVTVSS”, the “polyreactivity (PSR sort gate)” value was “low polyreactivity”.

For “QVQLVESGGGLVQAGGRLRLSCAASGSNFDIYALGWYRQAPGKERELVAAIRGRGGSTYYADSVKGRFTISRDNAKNTVYLQMNSLKPEDTAVYYCAARNSYGNWRYYYWGQGTQVTVSS”, the “polyreactivity (PSR sort gate)” value was “high polyreactivity”.

With “QVQLVESGGGLVQAGGSLRLSCAASGRIFRYYAMGWYRQAPGKERELVAAISGTGGNTYYADSVKGRSTISRDNAKNTVYLQMNSLKPEDTAVYYCAADQEWYYYFDSFAYYILDYWGQGTQVTVSS” the “polyreactivity (PSR sort gate)” value was “high polyreactivity”.

For “QVQLQESVGGLVQAGGSLRLSCAASGNIFPTDRMGWYRQAPGKELEFVATISHGGSTNYADSVKGRFTISRDNAKNTVYLQMNSLKPEDTAVYYCAVWSLGRWRHYYWGQVTQVTVSS”, the “polyreactivity (PSR sort gate)” value was “low polyreactivity”.

For “QVQLVESGGGLVQAGGSLRLSCAASGLTFVQYAMGWYRQAPGKERELVATISKSGGFTYYADSVKGRFTISRDNATNTVYLQMNSLKPEDTAVYYCAAAWYYSSRGFHASWGHDYWGQGTQVTVSS”, the “polyreactivity (PSR sort gate)” value was “low polyreactivity”.

In the case of “QVQLVESGGGLVQAGGSLRLSCPASGFTFYRYAMGWYRQSPGKEREFVAAITWSGGSTYYADSVKGRFTISRDNAKNTVYLQMNSLKPEDTAVYYCAAYVALDGTREYDYWGQGTQVTVSS”, the “polyreactivity (PSR sort gate)” value was “high polyreactivity”.

In the case of “QVQLVESGGGLVQAGGSLRLSCAASGRTFAGYAMGWYRQAPGKERELVAAISGSGGRTYYADSVKGRFTISRDNAKNTVYLQMNSLKPEDTAVYYCAASQRVYIARSDYWGQGTQATVSS”, the “polyreactivity (PSR sort gate)” value was “high polyreactivity”.

With “QVQLVESGGGLVQAGGSLRLSCAGSGITFYWYAMGWDRQAPGKERELVAGISQSGSRTYYADSVKGRFTISRDNAKNTVYLQMNSLKPEDTAVYYCAARVRWSPTRTFEYWGQGTQVTVSS” the “polyreactivity (PSR sort gate)” value was “high polyreactivity”.

In the case of “QVQLVESGGGLVQAGGSLRLSCAASGSIFFAYAMGWYRQAPGKERELVAAIRSGVRTNYADSVKGRFTISRDNAKNTVYIQMNSLKPEDTAVYYCNTDLSKFGHRVSLSGYDYWGQGTQVNVSS”, the “polyreactivity (PSR sort gate)” value was “low polyreactivity”.

For “QVQLVESGGGLVQAGGSLRLSCAASGFTLIDYAMGWYRQAPGKERELVAAISGSGGRTYYADSVKGRFTISRDNAKNTVYLQMNSLKPEDTAVYYCAAGRRHVYKRRRYDYCGQGTQVTVSS”, the “polyreactivity (PSR sort gate)” value was “high polyreactivity”.

In the case of “QVQLVESGGCLVQAGGSLRLSCAASGLIFRKYARGWSRQAPGKERELVAAISVSGGSTYYADSVKGRFTISRDNAKNTVYLQMNSLKPEDTAVYYCAATDFGRRGGSFYYWGQGTQVTVSS”, the “polyreactivity (PSR sort gate)” value was “high polyreactivity”.

With “QVQLVESGGGLVQAGGRLRLSCAAYGSIFDGYAMGWYRQAPGKERELVAAISRGGRTYYADSVKGRFTISRDNAKNTVYLQMNSLKPEDTAVYYCAAVTRLDGNMDYWGQGTQVTVSS” the “polyreactivity (PSR sort gate)” value was “high polyreactivity”.

For “QVQLVESGGGLVQAGGSLRLSCAASGRTFTGYAMGWYRQAPGKEREFVAAITQRGGSTYYADSVKGRFTISRDNEKNTVYLQMNSLKAEDTAVYYCAARRRYKMDYWGQGTQVTVSS”, the “polyreactivity (PSR sort gate)” value was “high polyreactivity”.

In the case of “QVQLVESGGGLVQAGGSLRLSCAASGFIFNGNVMGWYRQAPGKERELVAAITVSGGSTRYADSVKGRFTISRDNAKNTVYLQMNSLKPEDTAVYYCAARTRYLSYGWIHEYYYWGQGTQVTVSS”, the “polyreactivity (PSR sort gate)” value was “high polyreactivity”.

With “QVQLVESGGGLVKAGGSIRLSCAASGSIFTWYAMGWYRQAPGKESELVAAISEDGGSTYYADSVKGRFTISRDNAKNSVFLQMNSLKPEDTAVYYCATPVASVTGYDYWGQGTQVTVSS” the “polyreactivity (PSR sort gate)” value was “low polyreactivity”.

For “QVQLVESGGGLVQAGGSLRLSCAASGSILKRYAMGWYRQAPGKERELVAAITRRGGSTYYADSVKGRFTISRDNAKNTVYLQMNSLKPEDTAVYYCNAYTYSATVPIFTNYGYWGQGTQVTVSS”, the “polyreactivity (PSR sort gate)” value was “high polyreactivity”.

In the case of “QVQLVESGGGLVQAGGSLRLSCASSGSILYVYAMGWYRQAPGKERELVAAISTSGVSTYYADSVKGRFTISRDNAKNTVYLQMNSLKPEDTAVYYCAATVSRGFYSWWYDYWGQGTQVTVSS”, the “polyreactivity (PSR sort gate)” value was “low polyreactivity”.

With “QVQLVESGGGLVQAGGSLRLSCAASGSTFRHYAMGWYRQAPGKERELVAAISSTGGSTYYADSVKGRFTISRDNAKNTVYLQMNSLKPEDTAVYYCAARRLYWGQGTQVTVSS” the “polyreactivity (PSR sort gate)” value was “high polyreactivity”.

For “QVQLVESGGGLVQAGGSLRLSCAASGSTFQSYAMGWYRQAPGKERELVAAITTTGTRTYYADSVKGRFTISRDNAKNTVYFQMNSLKPEDTAVYSCNAQRLQAHRTSRRYDYWGQGTQVTVSS”, the “polyreactivity (PSR sort gate)” value was “high polyreactivity”.

With “QFQLVESGGGLVQAGGSLRLSCAASGLIFAYNAKGWSRQATGKERELVAAITGGGDGTYYADSVKGRFTISRDNAKYTVYLQMNSLKPEDTAVYYCAADYKYVGSEYGYWGQGTQVTVSS” the “polyreactivity (PSR sort gate)” value was “low polyreactivity”.

For “QVQLVESGGGLVQAGGSLRLSCAASGYTFGSYAMGWYRQAPGKERELVAAIRGSGGSTYYADSVKGRFTISRDNAKNTVYLQMNSLKPEDTAVYYCATSVRRGGRQLYNYWGQGTQVTVSS”, the “polyreactivity (PSR sort gate)” value was “high polyreactivity”.

With “QVQLVESGGGLVQAGGSLRLICAASGSIFIRNAMGWYRQAPGKERELVAAITSRGGSTYYADSVKGRFTISRDNAKNTVFLQMNSLKPEDTAVYYCARRYYGLYDYWGQGTQVTVSS” the “polyreactivity (PSR sort gate)” value was “low polyreactivity”.

For “QVQLVESGGGLVQAGGSLRLSCAASGRIFPFNDMGWYREAPGKEREFVADISDNGGSTYADSVKGRFTISRDNAKNTVYLQMNSLKPEDTAVYYCNAVYTSYRGGYYYWGQGTQGTVSS”, the “polyreactivity (PSR sort gate)” value was “low polyreactivity”.

With “QVQLQESGGGLVQAGGSLRLSCAASGSISAVGAMGWYRQAPGKEREFAASVNWGTNTNYADSVKGRFTISRDNAKNTLNLQMNSLKPEDTAVYYCAVQPDWETRHDYWGHGTQVTVSS” the “polyreactivity (PSR sort gate)” value was “low polyreactivity”.

For “QVQLVESGGGLVQAGGSLRLSCAASGRTFERYAMGWYRQAPGKERELVAAITSGGSTYYADSVKGRFTISRDNAKNTVYLQMNSLKPEDTAVYYCATSNWWGYDYWGQGTQVTVSS”, the “polyreactivity (PSR sort gate)” value was “high polyreactivity”.

With “QVQLVESGGGLVQAGGSLRLSCAASGFIFTRYAMGWYRPAPGKERELVAAISASGGSTYYADSVKGRFTISRDNAKNTVYLQMNSLKPEDTAVYYCAAGGSWFRYPPRMDYWGQGTQVTVSS” the “polyreactivity (PSR sort gate)” value was “high polyreactivity”.

In the case of “QVQLVESGGGLVQAGGSLRLSCAASGSIFNYNDMGWYRQAPGKERELVATITNGGGTNYADSVKGRFTISRDNAKNTVFLQMNSLKPEDTAVYYCAAGRSGWGYDSWGQGTQVTVSS”, the “polyreactivity (PSR sort gate)” value was “low polyreactivity”.

With “QVQLVESGGGLVQAGGSLRLSCAASVSTFSGYAMGWYRQAPGKERELVAAISSSGGGTYYADSVKGRFTISRDNAKNTVYLQMNSLKPEDTAVFYCAAYKYFLGFVWYDYWGQGTQVTVSS” the “polyreactivity (PSR sort gate)” value was “high polyreactivity”.

With “QVQLVESGGGLVQAGGSLRLSCAASGRTFWVYAMGWYRQAPGKERELVAAISWRAGSTYYADSVKGRFTISRDNAKNTVYLLMNSLKPEVTAVYYCAAETYTTLDYWGQGTQVTVSS” the “polyreactivity (PSR sort gate)” value was “high polyreactivity”.

With “QVQLVESGGGLVQAGGSLRLSCAASGFTFYYYAMGWYRQAPGKERELVAAISWSSGRTYYADSVKGRFTISRDNAKNTVYLQMNSLKPEDTAVYYCAADGYAGSWWYDYWGQCTQVTVSS” the “polyreactivity (PSR sort gate)” value was “high polyreactivity”.

In the case of “QVQLVESGGRLFQAGGSLRLICAASGSIFVYNTKGWYRQSPGKERELVASISYSGGPTYYADSVKGRFTISRDNAKNTVYLQMKSLNPEDTAVYYCAADVRQRGIYGPGPHYYWGQGTQVTVSS”, the “polyreactivity (PSR sort gate)” value was “high polyreactivity”.

With “QVQLVESGGGLVQPGGSLLLRGAASGSIYYRNVMGWYRPAPGKERELVAAISSGGNTYYADSVKGRFTISRDNAKNTVYLQMNSLKPVDTAVYYCNAEYEGLSFGWYEYWYDYWGQGTQVTVSS” the “polyreactivity (PSR sort gate)” value was “high polyreactivity”.

For “QVQLVESGGGLVQAGGSLRLSCAASGFTFYRNAMGWYRQAPGKERELVAGISKRGGSTYYADSVKGRFTISRDNAKNTVYLQMNSLKPEDTAVYYCARGGYPGSAEYDYWGQGTQVTVSS”, the “polyreactivity (PSR sort gate)” value was “high polyreactivity”.

With “QVQLVESGGGLVQAGGSLRLSCAASGITFYEYDMGWYRQAPGKERELVAAITSRGGSTYYADSVKGRFTISRDNAKNTVYLQMNSLKPEDTAVYYCNAVRGWLYVFSYPYWDDEYWGQGTQVTVSS” the “polyreactivity (PSR sort gate)” value was “high polyreactivity”.

With “QVQLVESGGGLVQAGGSLRLSCAASGYTFFKNAMGWYRQAPGKERELVAAISYSGGRTYYADSVKGRFTISRDNAKNTVYLQMNSLKPEDTAVYYCAKATRVITDDGSYGYWGQGTQVTVSS” the “polyreactivity (PSR sort gate)” value was “high polyreactivity”.

With “HVQLVESGGGLVQAGGSLRLSCAASGRIFGYNAMGWYRQAPGKERELVAAISYSGGSTYYADSVKGRFTISRDNAKNTVYLQMYSLKPEDTAVYYGAARGHYASLFGGYFHYNYWGQGPQVTVSS” the “polyreactivity (PSR sort gate)” value was “high polyreactivity”.
